From paper PMC5914118, “Exploiting the Concept of Multivalency with ^68Ga- and ^89Zr-Labelled Fusarinine C-Minigastrin Bioconjugates for Targeting CCK2R Expression” (Contrast Media & Molecular Imaging, 2018)
Like-named read-outs stand apart in the source and are kept apart here. Marks after values point to notes of the source that are not given here.

Tests used:
[1] = type: physicochemical
Description: Aliquots (50 μL) of ^68Ga- and ^89Zr-labelled mono-, di-, and trimer (10 μM) were diluted in 450 μL PBS. After adding 500 μL octanol the mixture was vortexed with 1400 rpm (MS 3 basic vortexer, IKA, Staufen, Germany) for 15 min at RT followed by centrifugation for 2 min at 4500 rpm. Subsequently, 100 μL aliquots of the organic and the aqueous layer were collected and logD values were calculated using Excel (n = 3, six replicates) after gamma counter measurement.

[2] = system: A431-CCK2R/A431-mock tumour xenografted BALB/c nude mice; details: mouse, in vivo
Description: All animal experiments were conducted in compliance with the Austrian and Dutch animal protection laws and with approval of the Austrian Ministry of Science (BMWF-66.011/000604-II/3b/2012 and BMWFW-66.011/0049-WF/II/3b/2014). In vivo stability studies were conducted in 5-week-old female BALB/c mice (in-house breed, ZVTA Innsbruck, Dr. Hermann Dietrich). The biodistribution studies were performed using female 8−10-week-old athymic BALB/c nude mice (Charles River Laboratories, Sulzfeld, Germany). Tumour xenografts were induced by subcutaneous injection of 2 × 10^6 A431-CCK2R cells (receptor positive) in the right and the same amount of A431-mock (receptor negative) in the left flank. Tumours were allowed to grow until they had reached a volume of 0.3–0.6 cm^3. To evaluate the biodistribution profile nude mice (n = 4) were intravenously injected with either 1-2 MBq ^68Ga- or 0.3 MBq ^89Zr-labelled mono-, di-, and trimer (0.1–0.2 nmol). The animals were sacrificed by cervical dislocation after 1 h as well as 2 h and 4 h in case of ^68Ga- and ^89Zr-labelled trimer, followed by the collection of organs and tissue. The collected samples were measured in the gamma counter and the results were calculated as percentage of injected dose per gram tissue (% ID/g).

CSCC[C@H](NC(=O)[C@H](Cc1c[nH]c2ccccc12)NC(=O)CNC(=O)[C@H](Cc1ccc(O)cc1)NC(=O)[C@H](C)NC(=O)[C@@H](CCC(=O)O)NC(=O)CCSC1CC(=O)N(CCC(=O)NC2CCCN(O)C(=O)C=C(C)CCOC(=O)C(NC(=O)CCN3C(=O)CC(SCCC(=O)N[C@H](CCC(=O)O)C(=O)N[C@@H](C)C(=O)N[C@@H](Cc4ccc(O)cc4)C(=O)NCC(=O)N[C@@H](Cc4c[nH]c5ccccc45)C(=O)N[C@@H](CCSC)C(=O)N[C@@H](CC(=O)O)C(=O)N[C@@H](Cc4ccccc4)C(N)=O)C3=O)CCCN(O)C(=O)C=C(C)CCOC(=O)C(NC(=O)CCN3C(=O)CC(SCCC(=O)N[C@H](CCC(=O)O)C(=O)N[C@@H](C)C(=O)N[C@@H](Cc4ccc(O)cc4)C(=O)NCC(=O)N[C@@H](Cc4c[nH]c5ccccc45)C(=O)N[C@@H](CCSC)C(=O)N[C@@H](CC(=O)O)C(=O)N[C@@H](Cc4ccccc4)C(N)=O)C3=O)CCCN(O)C(=O)C=C(C)CCOC2=O)C1=O)C(=O)N[C@@H](CC(=O)O)C(=O)N[C@@H](Cc1ccccc1)C(N)=O (stereo partly shown) [^68Ga-labelled Trimer, metal not drawn]
Distribution coefficient logD (pH 7.4) [1]: −2.20 ± 0.07
Biodistribution: A431-CCK2R tumour (receptor positive) ([2]; 1 h): 6.07 ± 1.56 % ID/g
Biodistribution: A431-mock tumour (receptor negative) ([2]; 1 h): 2.17 ± 0.70^e % ID/g
Biodistribution: Blood ([2]; 1 h): 3.70 ± 1.27 % ID/g
Biodistribution: Bone ([2]; 1 h): 2.03 ± 0.88 % ID/g
Biodistribution: Heart ([2]; 1 h): 1.60 ± 0.28^e % ID/g
Biodistribution: Intestine ([2]; 1 h): 1.15 ± 0.28^e % ID/g
Biodistribution: Kidneys ([2]; 1 h): 49.7 ± 10.1 % ID/g
Biodistribution: Liver ([2]; 1 h): 3.71 ± 0.75 % ID/g
Biodistribution: Lung ([2]; 1 h): 4.47 ± 1.50 % ID/g
Biodistribution: Muscle ([2]; 1 h): 0.75 ± 0.15 % ID/g
Biodistribution: Pancreas ([2]; 1 h): 1.37 ± 0.26^e % ID/g
Biodistribution: Spleen ([2]; 1 h): 2.15 ± 0.32^e % ID/g
Biodistribution: Stomach ([2]; 1 h): 3.17 ± 0.54 % ID/g
Biodistribution: A431-CCK2R tumour (receptor positive) ([2]; 2 h): 8.73 ± 2.65^e % ID/g
Biodistribution: A431-mock tumour (receptor negative) ([2]; 2 h): 3.18 ± 0.51 % ID/g
Biodistribution: Blood ([2]; 2 h): 2.53 ± 0.67 % ID/g
Biodistribution: Bone ([2]; 2 h): 2.52 ± 0.79 % ID/g
Biodistribution: Heart ([2]; 2 h): 2.18 ± 0.31 % ID/g
Biodistribution: Intestine ([2]; 2 h): 1.86 ± 0.33 % ID/g
Biodistribution: Kidneys ([2]; 2 h): 59.6 ± 4.3^f % ID/g
Biodistribution: Liver ([2]; 2 h): 4.09 ± 0.85 % ID/g
Biodistribution: Lung ([2]; 2 h): 5.78 ± 0.92 % ID/g
Biodistribution: Muscle ([2]; 2 h): 0.65 ± 0.14 % ID/g
Biodistribution: Pancreas ([2]; 2 h): 1.80 ± 0.31 % ID/g
Biodistribution: Spleen ([2]; 2 h): 2.89 ± 0.53 % ID/g
Biodistribution: Stomach ([2]; 2 h): 3.86 ± 1.36^f % ID/g
Biodistribution: A431-CCK2R tumour (receptor positive) ([2]; 4 h): 14.44 ± 3.40^f % ID/g
Biodistribution: A431-mock tumour (receptor negative) ([2]; 4 h): 2.16 ± 0.54 % ID/g
Biodistribution: Blood ([2]; 4 h): 1.76 ± 0.43 % ID/g
Biodistribution: Bone ([2]; 4 h): 2.26 ± 0.41 % ID/g
Biodistribution: Heart ([2]; 4 h): 1.51 ± 0.33^f % ID/g
Biodistribution: Intestine ([2]; 4 h): 2.48 ± 0.59 % ID/g
Biodistribution: Kidneys ([2]; 4 h): 172.1 ± 14.8 % ID/g
Biodistribution: Liver ([2]; 4 h): 6.01 ± 2.54 % ID/g
Biodistribution: Lung ([2]; 4 h): 3.75 ± 0.84^f % ID/g
Biodistribution: Muscle ([2]; 4 h): 1.01 ± 0.37 % ID/g
Biodistribution: Pancreas ([2]; 4 h): 3.10 ± 1.13 % ID/g
Biodistribution: Spleen ([2]; 4 h): 2.77 ± 0.78 % ID/g
Biodistribution: Stomach ([2]; 4 h): 13.6 ± 4.9 % ID/g

CSCC[C@H](NC(=O)[C@H](Cc1c[nH]c2ccccc12)NC(=O)CNC(=O)[C@H](Cc1ccc(O)cc1)NC(=O)[C@H](C)NC(=O)[C@@H](CCC(=O)O)NC(=O)CCSC1CC(=O)N(CCC(=O)NC2CCCN(O)C(=O)C=C(C)CCOC(=O)C(NC(=O)CCN3C(=O)CC(SCCC(=O)N[C@H](CCC(=O)O)C(=O)N[C@@H](C)C(=O)N[C@@H](Cc4ccc(O)cc4)C(=O)NCC(=O)N[C@@H](Cc4c[nH]c5ccccc45)C(=O)N[C@@H](CCSC)C(=O)N[C@@H](CC(=O)O)C(=O)N[C@@H](Cc4ccccc4)C(N)=O)C3=O)CCCN(O)C(=O)C=C(C)CCOC(=O)C(NC(=O)CCN3C(=O)CC(SCCC(=O)N[C@H](CCC(=O)O)C(=O)N[C@@H](C)C(=O)N[C@@H](Cc4ccc(O)cc4)C(=O)NCC(=O)N[C@@H](Cc4c[nH]c5ccccc45)C(=O)N[C@@H](CCSC)C(=O)N[C@@H](CC(=O)O)C(=O)N[C@@H](Cc4ccccc4)C(N)=O)C3=O)CCCN(O)C(=O)C=C(C)CCOC2=O)C1=O)C(=O)N[C@@H](CC(=O)O)C(=O)N[C@@H](Cc1ccccc1)C(N)=O (stereo partly shown) [^89Zr-labelled Trimer, metal not drawn]
Distribution coefficient logD (pH 7.4) [1]: −2.41 ± 0.04
Biodistribution: A431-CCK2R tumour (receptor positive) ([2]; 1 h): 4.28 ± 0.95^b % ID/g
Biodistribution: A431-mock tumour (receptor negative) ([2]; 1 h): 0.81 ± 0.24^d % ID/g
Biodistribution: Blood ([2]; 1 h): 1.46 ± 0.32^d % ID/g
Biodistribution: Bone ([2]; 1 h): 1.39 ± 0.65 % ID/g
Biodistribution: Heart ([2]; 1 h): 0.92 ± 0.21^d % ID/g
Biodistribution: Intestine ([2]; 1 h): 0.56 ± 0.14^d % ID/g
Biodistribution: Kidneys ([2]; 1 h): 57.7 ± 14.4^e % ID/g
Biodistribution: Liver ([2]; 1 h): 0.84 ± 0.21^d % ID/g
Biodistribution: Lung ([2]; 1 h): 1.44 ± 0.39^d % ID/g
Biodistribution: Muscle ([2]; 1 h): 0.47 ± 0.18^cd % ID/g
Biodistribution: Pancreas ([2]; 1 h): 1.56 ± 0.44 % ID/g
Biodistribution: Spleen ([2]; 1 h): 0.79 ± 0.23^d % ID/g
Biodistribution: Stomach ([2]; 1 h): 3.10 ± 0.97 % ID/g
Biodistribution: A431-CCK2R tumour (receptor positive) ([2]; 2 h): 8.90 ± 3.10^e % ID/g
Biodistribution: A431-mock tumour (receptor negative) ([2]; 2 h): 0.93 ± 0.29^d % ID/g
Biodistribution: Blood ([2]; 2 h): 1.19 ± 0.32^d % ID/g
Biodistribution: Bone ([2]; 2 h): 2.07 ± 0.68 % ID/g
Biodistribution: Heart ([2]; 2 h): 0.91 ± 0.25^d % ID/g
Biodistribution: Intestine ([2]; 2 h): 0.44 ± 0.30^d % ID/g
Biodistribution: Kidneys ([2]; 2 h): 96.5 ± 23.6^f % ID/g
Biodistribution: Liver ([2]; 2 h): 1.28 ± 0.35^d % ID/g
Biodistribution: Lung ([2]; 2 h): 1.21 ± 0.23^d % ID/g
Biodistribution: Muscle ([2]; 2 h): 0.42 ± 0.07^d % ID/g
Biodistribution: Pancreas ([2]; 2 h): 1.51 ± 0.40 % ID/g
Biodistribution: Spleen ([2]; 2 h): 0.90 ± 0.25^d % ID/g
Biodistribution: Stomach ([2]; 2 h): 3.15 ± 0.75 % ID/g
Biodistribution: A431-CCK2R tumour (receptor positive) ([2]; 4 h): 14.39 ± 3.92 % ID/g
Biodistribution: A431-mock tumour (receptor negative) ([2]; 4 h): 0.66 ± 0.06^d % ID/g
Biodistribution: Blood ([2]; 4 h): 0.75 ± 0.26^d % ID/g
Biodistribution: Bone ([2]; 4 h): 4.41 ± 1.31 % ID/g
Biodistribution: Heart ([2]; 4 h): 0.91 ± 0.09^d % ID/g
Biodistribution: Intestine ([2]; 4 h): 0.65 ± 0.07^d % ID/g
Biodistribution: Kidneys ([2]; 4 h): 150.5 ± 18.3 % ID/g
Biodistribution: Liver ([2]; 4 h): 1.71 ± 0.32^d % ID/g
Biodistribution: Lung ([2]; 4 h): 0.84 ± 0.20^d % ID/g
Biodistribution: Muscle ([2]; 4 h): 0.62 ± 0.23 % ID/g
Biodistribution: Pancreas ([2]; 4 h): 2.34 ± 0.59 % ID/g
Biodistribution: Spleen ([2]; 4 h): 0.95 ± 0.13^d % ID/g
Biodistribution: Stomach ([2]; 4 h): 3.50 ± 0.86^d % ID/g

CSCC[C@H](NC(=O)[C@H](Cc1c[nH]c2ccccc12)NC(=O)CNC(=O)[C@H](Cc1ccc(O)cc1)NC(=O)[C@H](C)NC(=O)[C@@H](CCC(=O)O)NC(=O)CCSC1CC(=O)N(CCC(=O)NC2CCCN(O)C(=O)C=C(C)CCOC(=O)C(NC(=O)CCN3C(=O)CC(SCCC(=O)N[C@H](CCC(=O)O)C(=O)N[C@@H](C)C(=O)N[C@@H](Cc4ccc(O)cc4)C(=O)NCC(=O)N[C@@H](Cc4c[nH]c5ccccc45)C(=O)N[C@@H](CCSC)C(=O)N[C@@H](CC(=O)O)C(=O)N[C@@H](Cc4ccccc4)C(N)=O)C3=O)CCCN(O)C(=O)C=C(C)CCOC(=O)C(NC(C)=O)CCCN(O)C(=O)C=C(C)CCOC2=O)C1=O)C(=O)N[C@@H](CC(=O)O)C(=O)N[C@@H](Cc1ccccc1)C(N)=O (stereo partly shown) [^89Zr-labelled Dimer, metal not drawn]
Distribution coefficient logD (pH 7.4) [1]: −2.83 ± 0.02
Tumour-to-organ ratio (T/O): A431-mock [2]: 11.2 ± 2.3
Tumour-to-organ ratio (T/O): Blood [2]: 7.4 ± 2.3^c
Tumour-to-organ ratio (T/O): Bone [2]: 7.4 ± 1.2^c
Tumour-to-organ ratio (T/O): Heart [2]: 9.8 ± 4.8
Tumour-to-organ ratio (T/O): Intestine [2]: 12.5 ± 3.1
Tumour-to-organ ratio (T/O): Kidneys [2]: 0.15 ± 0.06
Tumour-to-organ ratio (T/O): Liver [2]: 10.3 ± 3.2^c
Tumour-to-organ ratio (T/O): Lung [2]: 7.6 ± 2.9^c
Tumour-to-organ ratio (T/O): Muscle [2]: 7.9 ± 5.3
Tumour-to-organ ratio (T/O): Pancreas [2]: 9.2 ± 3.1^c
Tumour-to-organ ratio (T/O): Spleen [2]: 10.5 ± 4.5
Tumour-to-organ ratio (T/O): Stomach [2]: 3.4 ± 1.1
Biodistribution: A431-CCK2R tumour (receptor positive) ([2]; 1 h): 7.69 ± 1.34^ac % ID/g
Biodistribution: A431-mock tumour (receptor negative) ([2]; 1 h): 0.86 ± 0.22 % ID/g
Biodistribution: Blood ([2]; 1 h): 1.17 ± 0.28 % ID/g
Biodistribution: Bone ([2]; 1 h): 1.36 ± 0.42 % ID/g
Biodistribution: Heart ([2]; 1 h): 1.01 ± 0.37 % ID/g
Biodistribution: Intestine ([2]; 1 h): 0.73 ± 0.25 % ID/g
Biodistribution: Kidneys ([2]; 1 h): 55.5 ± 10.3 % ID/g
Biodistribution: Liver ([2]; 1 h): 0.83 ± 0.20 % ID/g
Biodistribution: Lung ([2]; 1 h): 1.16 ± 0.28 % ID/g
Biodistribution: Muscle ([2]; 1 h): 1.51 ± 0.70 % ID/g
Biodistribution: Pancreas ([2]; 1 h): 0.95 ± 0.23^c % ID/g
Biodistribution: Spleen ([2]; 1 h): 0.99 ± 0.40 % ID/g
Biodistribution: Stomach ([2]; 1 h): 2.99 ± 1.13 % ID/g
